Reference: US6806056B2, “Fluorescent capture assay for kinase activity employing an anti-phosphotyrosine antibody as both the capture agent and detecting agent” (Pharmacopeia Drug Discovery, Inc., priority 1999, dated 2004)

B1: IL-4: IL-4, used as a stimulus for Daudi or Ramos B-cells (protein, UniProt P05112 25-153, looked up)
Interleukin-4: HKCDITLQEIIKTLNSLTEQKTLCTELTVTDIFAASKNTTEKETFCRAATVLRQFYSHHEKDTRCLGATAQQFHRHKQLIRFLKRLDRNLWGLAGLNSCPVKEANQSTLENFLERLKTIMREKYSKCSS

Columns and labels:
Assay type in all cases: cell-based
[1] = system: Jurkat cells; test: Anti-phosphotyrosine capture assay of tyrosine kinase activity after SDF-1α stimulation for various times; conditions: 37° C., 100 nM SDF-1α, various time intervals, FIG. 2
Description: (§1) 96-well polystyrene plates were coated with an anti-phosphotyrosine antibody, pY99 (Santa Cruz Biotech, Inc., Santa Cruz, Calif.), by adding 200 μl of an antibody solution in Tris buffered saline (TBS) pH 8.0 at a concentration of 2.5 μg/ml. The plates were incubated for three hours at room temperature. The plates were then rinsed and 300 μl of blocking solution, sold under the trademark, SUIPERBLOCK® (Pierce Chemical, Rockford, Ill.) was added and the plates were incubated for two hours. At this point, the plates may be stored at 4° C. for up to two weeks. […]
To assay the cell lysates for kinase activity, the plate was thawed at 37° C., and 100 μl of tris buffered saline with 0.1% Tween 20 was added to each well. […] Relative phosphorylated protein levels were detected by adding 100 μl of a 0.2 μg/ml solution of europium-chelate labeled anti-phosphotyrosine antibody in tris buffered saline (pH 8.0) to each well and allowing the plate to incubate for one hour with shaking. […] Enhancement Solution for measuring Eu^3+ (E. G. & G. Wallac, Turku, FI) was added and the amount of labeled antibody bound was measured using a time-resolved fluorescence plate reader, for example, a Wallac 1420, or Victor MLC (Wallac Oy, Turku, FI). […]

[2] = system: Daudi B cells; test: Anti-phosphotyrosine capture assay (time-resolved fluorescence) of tyrosine phosphorylation in stimulated B-cells; conditions: ligand 100 ng/ml, 15 minutes, FIG. 1
Description: as §1
(§2) To assay the cell lysates for kinase activity, the plate was thawed at 37° C., and 100 μl of tris buffered saline with 0.1% Tween 20 was added to each well. […] Relative phosphorylated protein levels were detected by adding 100 μl of a 0.2 μg/ml solution of europium-chelate labeled anti-phosphotyrosine antibody in tris buffered saline (pH 8.0) to each well and allowing the plate to incubate for one hour with shaking. […] Enhancement Solution for measuring Eu^3+ (E. G. & G. Wallac, Turku, FI) was added and the amount of labeled antibody bound was measured using a time-resolved fluorescence plate reader, for example, a Wallac 1420, or Victor MLC (Wallac Oy, Turku, FI).

[3] = system: Ramos B cells; test: as above; conditions: ligand 100 ng/ml, 15 minutes, FIG. 1
Description: as §1, §2

Molecule	tyrosine kinase activity (fluorescence) as time increases [1]	changes in tyrosine phosphorylation on stimulation [2]	changes in tyrosine phosphorylation on stimulation [3]
SDF-1α	decrease in kinase activity	–	–
B1	–	not significantly	not significantly
